Data on 16 sequences can be found in the DeepSol protein solubility set.

The data set in a line: soluble on expression in E. coli; label from the status in PepcDB or PDB records.
Regarding “MGSDKIHHHHHHVTAPAFLPVILAGGSGERFWPLSRKHRPKQFLTLDETGRSLLQATSDRLGRLSGSPEQVMVVTGTEYRTQVLEQLPDMPIEHLIVEPVARDTAPAVLYAALRVAQENPQAVMGVFPADHRITDAQAFGRVVRRAIEVAEITGGLVTLGVTPTFPATGYGYIQRGEQLLGGELPAFRVSRFTEKPDAETAQLFLADGRYTWNSGMFIWRVQAILAAFEQYQPDMYAQLSAAVRGSPRQVRAVFPELQKISIDYAILEKSDQVVVIPAEFGWDDLGDWNALERLLKGEGQNVAVGRHVGLDTDGAILYTTGGDGLIATIGLEDVVVVRTDEVTLVVRKDRTQDIKKVVQQLKSHPELERFA”, the “soluble on expression in E. coli” value is “not soluble”.

With “MGSDKIHHHHHHVTGSDTQLYPPMSTYLENHNIRYFNSFSAENLKSATPDLVVVGNAISRGNPDLEYALDQHMELISMPQLVRRELIGRHTSIVVAGTHGKTTTTSLVAWLLEAGGLLPGFLIGGIPENFGDGCRPSGLSEPGFFVTEGDEYDSAFFDKRSKFLHYRPDIAIINNVEFDHADIFDSLDDIKKSFRLLVNLVPSNGLLIVNADDPNSMEVSAKAFCRVETFGLNGNAEWTAADIATDTDGTSFTVVRDSEAIGRVKVPLFGNYNVMNALAATAAAIRAGVSFESVTRGLCSFKRPKRRMELVGEYAGGITLIEDFAHHPTAIRLTLGAIAEHYPGRRIIACFEPRSNTTSRNIFQHELSECFGDAAIVVLGKVNRPERYAPEERLDAALLCRELKANGKRVFAAGSENYPEDIVRFIEAEQQPGDVVVLLSNGSFSGLKEMLAESFQKNS”, the “soluble on expression in E. coli” value is reported as “not soluble”.

On to “MGSDKIHHHHHHVTIEIRQLRYALMSADLRSFSGAASRLNVKQATLSRSVLQLEDRLGIKLFERTTRGAEPTETGKVFLETARRIITDLENLQTTARAVSYGEQGRFAVGYCSSLMAGHLKAAFSDYLTRFPDVQFDGVEGDPDKLCSDLRAGTIDVAIAPLGSEEQGIASRPVWSERLVAALYPEHPLLEASRIYWGDLRREIFVVPRKGIGQMIRNMITARLTGQGYRPNIITQETSLESVLSMVPVGRFITIATEASMGVAWPELQFRDIYDNGGTARIDFALYWREDNENPALQRFFTMINERYPA”, for which the “soluble on expression in E. coli” value was “not soluble”.

Take “MGSDKIHHHHHHVTPLPIVDPGPPVLYDVEHVTSYRYALPVTVSHQCAHLKPRSFATQQVLSTQLGATPLPEIRSERIDYFGNTVTSFSLSEPHESLTVVAQSQVRILPPTLPAAADTPRWEEVAERLRLGFGADTLDACQMLYPSGHVKTLPEVRAYALPSFPPDRPILEAAIDLTGRIHADFTYDPTATTVATPLAEVLAKRRGVCQDFAHLQIACLRSMGLAARYVSGYVLTCSTESGERLEGGDASHAWVSLYVPCAAAPNGGWIDLDPTNDKLITREHVTVAWGRDFEDVSPIKGVMLGGGAQTVSVAVTLRPRTNGPRARTESPA”: the “soluble on expression in E. coli” value is on record as “not soluble”.

“MGSDKIHHHHHHVYTSFYGFKAKPFQLSPDPSFFFGSKGHNRAMAYLEYGLAQAEGFIVVTGEVGAGKTTLVRNLFRQLEPEKIVAAQIVNTSLDSDDTLRMVAAAFGLPLAQGNPGKTPVLVALEKFFRQCEQQGKRALLVVDEAQNLSPQTVEELRMLSNFQGDNKSLLQTFLLGQPEFRKTLLGNDMQQLRQRITATYHLGPMDRAETKSYIEHRLKTVGWGGNPGFDEEAFDAIHQYTGGIPRRINALCDRLLLMGYLEKLQHFGVSEVNEVIRDIQQEFDAVEVEAGLLSGDKTSPLKEEQFAIGLEEMSNRIAKLEETVVSLMGLLKQILSLADVNKRLR”: the “soluble on expression in E. coli” value is given as “not soluble”.

For the sequence “MGSEIDQNDTDSSTQEWYRLLVVEKSTTLSDFMTSKRTKMVSDFPEEREEAIEEIIEVISTFPMDFLQKDEVSLLLNYFINSIESSALTGGAVIRGVHHLILKSKNLPDNFEVSLIRVLFKEGNVQSWAQKERQLQYEILIWFLKYRLSFLKGLGPDFLATFMKSVSGERDPRCLVHMFSAFLEVSNNFTLGPFTEDMFETIACYFPVEFKPQKTDTITREYLAASCASCLVSSPSFAPFCFLFIDEKLNDDDCSDEEYEDVLNLLILAYNRFPAQKKNLSLIEPLIGGIRKIGLNPKNKGEMQKYVSQAFEAVIKLCTKSSETNSKALDGIVSSIVEDSEPFVLQAEMGLCKKALTLLRSAFKSLPDKNSRQIFNQVIAWILNLIQGDSVNAAGNRADIVQEGLEYLVEWIQLASEYKELSIETLAVFEQSIFESCSRAREFKPREAITAIYECASVYFESDCASDELISQCRSYIALALRTPIDTDSDFQSLLKLIRIYSSKNFDQVEIILADNETNSWNAMKVLPVLCAISCSQRWNLLKNKIVDELGSTISSSTEISYLICYVQMMEKCKKDPQLFHQQFEVFESVLYKTDCNEPVSVSYLMQSISLLLSEDDHQKFMNQTTTRYQSLEGSSLDNFNQKYRLAYLQNKNTNDLKTIANLKLPERTIRQLFFAICNREAENENNSEIPEQHHIAEIKAKLLRNAPNSLSAFEQFLTNISGSTESPFEYLLDFDSFDSNPDRCRYETASPLWRQRIFCQIVPIFKRKFEEPGSQKHVLVEMLPHLLTFAVPLDFQQLKKQFAMLLPVLIQTIGMEDVIPSHVTRTIPMFLTISEPLQPKDLGTVVKYLCSITRDNDSNMTNLEDALNGLNILARRQPPKSLHSEVPLVVTSINKILGHKKRLLRMMAADVKNNWEMVITK”, the “soluble on expression in E. coli” value was “not soluble”.

With “MGSFMTDIAVIINNRAKNAHRMEDYLSELRAHDIDYQLYKADPQQLEKNIQHCCSKYPLLLIGGGDGTVRSAAQWCSNTSVILGVLPLGTMNHFSKELNLPSTTEELIAAIVEKTTTTIDVAEVNGH”, the “soluble on expression in E. coli” value is “not soluble”.

Consider “MGSSHHHHHHGGTGENLYFQGGSGKNYFYIPIADDMHCHLRQGDMLDFTVNSIRRGGCNRVLVMPNTHPIISTCSDAQKYLYQLKSRDDDIEYLMTLYLNKNTDENDILSNYYKCNLQGVKIYPSNVTTNSSDGITSLEPYYKVFHALEKLNKSIHIHCEEPNINPLYAEEKYLPHIHDLAIKFPGLNIVLEHISSSESINVIKEFRNVAGSITPHHLYLTIDDVVNMDIYDHAIDNTYIEKYIKNTYHYCKPLPKLLEDKIALQDVIKDDFPRVFLGSDSAPHYKVMKRKPYYKPGIYTQPFLINYVAHILNKFDALDKMENFTSKNASLFLNLAEKKKLAKYYICVEKHPFKLPREYNGVVPFLAGKTLDYDIHYVSKF”, for which the “soluble on expression in E. coli” value is “not soluble”.

As to “MGSSHHHHHHGGTGENLYFQGGSGLLMRSSSPAATVQATHQRVQSAQERHVRREYASDVNTPRALSVRSSRGGSFAFAPQVQEKYNTMNILVLGAPQVGKSLFINSYRAAITNTTRWPAAPVGISGFYGTTTVAPFPNHARQPTWLCIDTPGSLYTEKHAVLLEKLTEGMPWKTKLKGPNALTLRQIKDISPIAANKAHQCIIVVPATDLIEDDGLINTLLWRNRYRPAGGVADIIFYLKGLISSLRTLMDDASPFVVVTKMDKVGGARNSSACAALVSILGQCVPVNHVYFTAAVENRALLATGRTMVLESSTKQNLVRLHEDICLAVQWRNQVDAM”, the “soluble on expression in E. coli” value is “not soluble”.

As for “MGSSHHHHHHGGTGENLYFQGGSGMAYRHQATDQFHRFLHNPHVVQPDGVDGLPRVKGDQQQWLNTEQWHGYSDTYLQRHMQYPATVELNNPAVNARHDLLYECLGLVYELYGGLAEDLQELHDDPLHPHFHRRIARIKRDRERIATELDKRYAKLHPTVKTVYDAFLVRRYYHLADWIEHVERKRERLINDLSPDVMEKTMRMRGIAEQYLRHLRALEHALYEDPLMGLLGGDRGTNVLDQYTPGELAMLRQKAAYFRNMRRFGANQLDADMHTH”, the “soluble on expression in E. coli” value was “soluble”.

As to “MGSSHHHHHHGGTGENLYFQGGSGMKGVTSFTVYGLVPAADFQRCAEAAAYVNDKYPESYAVIVKLELPRDFAERRAAWASAGHLPSQQQQPTDASFGESGGSATTASTAAAELAAVLVEQHGSDSEPQCLLTAETFLHNIATHTDYKPDATEDYYTARGKRAWRAFLASRGRQYCWMDVSVDGVAVGRVWFELYASVAPLTCKNFCELCRGTTVAMGDTVAHSSVFDPPPAQHIGYKGTTFFRTLKDAWVMGGDVTGAHSGNGGYSCYGRCFPDETYAVPHDAAGILGMCNDGPHTSSSAFYITLRPMSWMNGKYVAFGRVMDGMHVVDAIHAVEARHNQAPKASIVITDCDVLDTSV”, the “soluble on expression in E. coli” value is “soluble”.

Turning to “MGSSHHHHHHNFYDSDPHISELTPKSFDKAIHNTNYTSLVEFYAPWCGHCKKLSSTFRKAAKRLDGVVQVAAVNCDLNKNKALCAKYDVNGFPTLMVFRPPKIDLSKPIDNAKKSFSAHANEVYSGARTLAPIVDFSLSRIRSYVKKFVRIDTLGSLLRKSPKLSVVLFSKQDKISPVYKSIALDWLGKFDFYSISNKKLKQLTDMNPTYEKTPEIFKYLQKVIPEQRQSDKSKLVVFDADKDKFWEYEGNSINKNDISKFLRDTFSITPNEGPFSRRSEYIAYLKTGKKPIKKNHSS”, the “soluble on expression in E. coli” value is “soluble”.

As for “MGSSHHHHHHSSGLEVLFQGPHMSYQVLARKWRPQTFADVVGQEHVLTALANGLSLGRIHHAYLFSGTRGVGKTSIARLLAKGLNCETGITATPCGVCDNCREIEQGRFVDLIEIDAASRTKVEDTRDLLDNVQYAPARGRFKVYLIDEVHMLSRHSFNALLKTLEEPPEHVKFLLATTDPQKLPVTILSRCLQFHLKALDVEQIRHQLEHILNEEHIAHEPRALQLLARAAEGSLRDALSLTDQAIASGDGQVSTQAVSAMLGTLDDDQALSLVEAMVEANGERVMALINEAAARGIEWEALLVEMLGLLHRIAMVQLSPAALGNDMAAIELRMRELARTIPPTDIQLYYQTLLIGRKELPYAPDRRMGVEMTLLRALAFHPRMPLPEPEVPRQ”, the “soluble on expression in E. coli” value is “soluble”.

Consider “MGSSHHHHHHSSGLVPRGSHMEAPAAVVTGAAKRIGRAIAVKLHQTGYRVVIHYHNSAEAAVSLADELNKERSNTAVVCQADLTNSNVLPASCEEIINSCFRAFGRCDVLVNNASAFYPTPLVQGDHEDNSNGKTVETQVAELIGTNAIAPFLLTMSFAQRQKGTNPNCTSSNLSIVNLCDAMVDQPCMAFSLYNMGKHALVGLTQSAALELAPYGIRVNGVAPGVSLLPVAMGEEEKDKWRRKVPLGRREASAEQIADAVIFLVSGSAQYITGSIIKVDGGLSLVHA”, for which the “soluble on expression in E. coli” value is “soluble”.

As for “MGSSHHHHHHSSGLVPRGSHMGSSHHHHHHSSGLVPRGSHMSQLAHNLTLSIFDPVANYRAARIICTIGPSTQSVEALKGLIQSGMSVARMNFSHGSHEYHQTTINNVRQAAAELGVNIAIALDTKGPEIRTGQFVGGDAVMERGATCYVTTDPAFADKGTKDKFYIDYQNLSKVVRPGNYIYIDDGILILQVQSHEDEQTLECTVTNSHTISDRRGVNLPGCDVDLPAVSAKDRVDLQFGVEQGVDMIFASFIRSAEQVGDVRKALGPKGRDIMIICKIENHQGVQNIDSIIEESDGIMVARGDLGVEIPAEKVVVAQKILISKCNVAGKPVICATQMLESMTYNPRPTRAEVSDVANAVFNGADCVMLSGETAKGKYPNEVVQYMARICLEAQSALNEYVFFNSIKKLQHIPMSADEAVCSSAVNSVYETKAKAMVVLSNTGRSARLVAKYRPNCPIVCVTTRLQTCRQLNITQGVESVFFDADKLGHDWGKEHRVAAGVEFAKSKGYVQTGDYCVVIHADHKVKGYANQTRILLVE”, the “soluble on expression in E. coli” value was “soluble”.

For the sequence “MGSSHHHHHHSSGLVPRGSHMILTLTLNPSVDISYPLTALKLDDVNRVQEVSKTAGGKGLNVTRVLAQVGEPVLASGFIGGELGQFIAKKLDHADIKHAFYNIKGETRNCIAILHEGQQTEILEQGPEIDNQEAAGFIKHFEQLLEKVEAVAISGSLPKGLNQDYYAQIIERCQNKGVPVILDCSGATLQTVLENPYKPTVIKPNISELYQLLNQPLDESLESLKQAVSQPLFEGIEWIIVSLGAQGAFAKHNHTFYRVNIPTISVLNPVGSGDSTVAGITSAILNHENDHDLLKKANTLGMLNAQEAQTGYVNLNNYDDLFNQIEVLEV”, the “soluble on expression in E. coli” value is recorded as “soluble”.
